Paper PMC13230913 (Nature Communications, 2026)

T1: stabilized, soluble prefusion measles virus F ectodomain (F_ECTO E170G, E455G, residues 1-495) (Measles virus strain Ichinose-B95a, stabilised)
T1 chain 1: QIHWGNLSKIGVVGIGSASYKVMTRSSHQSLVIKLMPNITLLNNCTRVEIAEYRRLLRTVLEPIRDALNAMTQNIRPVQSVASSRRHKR
T1 chain 2: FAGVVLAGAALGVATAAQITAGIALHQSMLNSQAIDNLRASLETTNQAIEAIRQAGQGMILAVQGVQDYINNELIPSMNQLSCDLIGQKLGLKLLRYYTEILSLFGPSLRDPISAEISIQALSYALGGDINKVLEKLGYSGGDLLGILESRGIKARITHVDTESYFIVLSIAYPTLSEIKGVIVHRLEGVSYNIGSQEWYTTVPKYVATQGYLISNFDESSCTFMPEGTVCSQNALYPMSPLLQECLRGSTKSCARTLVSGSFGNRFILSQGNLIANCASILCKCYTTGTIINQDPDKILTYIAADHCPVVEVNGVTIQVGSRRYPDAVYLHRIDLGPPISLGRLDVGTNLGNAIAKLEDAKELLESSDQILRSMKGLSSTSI

B1: Y10F Fab (Fab, V domains shown)
VH: QVQLQQSGAELMKPGASVKISCKAAGYTFSNYWIEWVKQRPGHGLEWIGEILPGNSYTNYNEKFRGKATITADTSSNTAYMQLSSLTSEDSAVYYCASPLSGNYVRFAYWGQGTLVTVST
VL: QIVLSQSPAILSASPGEKVTMTCRATSSVVYMHWYQQKPGSSPKPWIYATSNLASGVPTRFSGSGSGTSYSLTISRVEAEDAATYYCQQWNSNPYTFGGGTKLEIK
B2: chimeric monoclonal antibody Y10F (mouse Fab / human Fc) (antibody, V domains shown)
VH: B1 VH
VL: B1 VL
B3: chimeric monoclonal antibody 77.1 (mouse Fab / human Fc) (antibody, V domains shown)
VH: DVQLQESGPGLVKPSQSLSLTCTVSGYSITSDYAWNWIRQFPGNKLEWMGYISYTLTTGYNPSLKSRISITRDSSKNQFFLQLNSVTTEDTATYYCARSGWLLPYWYFDVWGAGTTVTVSS
VL: DVQITQSPSYLAASPGETITINCRASKSISKYLAWYQEKPGKTNELLIYSGSTLQSGIPSRFRGSGSGTDFTLTISSLEPEDFAMYYCQQHNEYTLTFGGGTKLELK
B4: chimeric monoclonal antibody H8 (mouse Fab / human Fc) (antibody, V domains shown)
VH: QVQLQQSGAELVRPGTSVKISCKASGYTFINYWLGWVKQRPGHGLEWIGDIYPGGGHTKYNEKFKGKATLTADTSSSTAYMQLSSLTSEDSAVFFCARSGVGSSYYYWGQGTTLTVSS
VL: DIVLTQSPASLAVSLGQRATISCRASKSVSSSGYSFLHWYQQKPGQPPKLLIYLASNLDSGVPARFSGSGSGTDFTLNIHPVEEEDATTYYCQHSWELPTFGGGTKLEIK

Key:
[1] = molecular target: T1, stabilized, soluble prefusion measles …; assay: cell-based or functional assay
[2] = molecular target: T1, stabilized, soluble prefusion measles …; assay: SPR
[3] = molecular target: measles virus B3 F protein with L454W (destabilized prefusion conformation), on cells (Measles virus genotype B3)

| Binder | melting temperature of F_ECTO with Fab by nanoDSF (F_ECTO alone 47.2 °C) [1] | Kd [2] | koff [2] | kon [2] | IC90 of plaque reduction neutralization test (PRNT), virus B3 F-L454W [3] |
| --- | --- | --- | --- | --- | --- |
| B1 | 55.5 °C | – | – | – | – |
| B2 | – | 0.0999 µM | 0.00179 s⁻¹ | 17900 ± 300 M⁻¹ s⁻¹ | – |
| B3 | – | 0.00171 µM | 0.000207 s⁻¹ | 121000 ± 2000 M⁻¹ s⁻¹ | – |
| B4 | – | 0.00317 µM | 7.48e-05 s⁻¹ | 23600 ± 810 M⁻¹ s⁻¹ | 0.023 µM |
